B1: tissue plasminogen activator (protein, UniProt P00750 36-562, looked up)
Tissue-type plasminogen …: SYQVICRDEKTQMIYQQHQSWLRPVLRSNRVEYCWCNSGRAQCHSVPVKSCSEPRCFNGGTCQQALYFSDFVCQCPEGFAGKCCEIDTRATCYEDQGISYRGTWSTAESGAECTNWNSSALAQKPYSGRRPDAIRLGLGNHNYCRNPDRDSKPWCYVFKAGKYSSEFCSTPACSEGNSDCYFGNGSAYRGTHSLTESGASCLPWNSMILIGKVYTAQNPSAQALGLGKHNYCRNPDGDAKPWCHVLKNRRLTWEYCDVPSCSTCGLRQYSQPQFRIKGGLFADIASHPWQAAIFAKHRRSPGERFLCGGILISSCWILSAAHCFQERFPPHHLTVILGRTYRVVPGEEEQKFEVEKYIVHKEFDDDTYDNDIALLQLKSDSSRCAQESSVVRTVCLPPADLQLPDWTECELSGYGKHEALSPFYSERLKEAHVRLYPSSRCTSQHLLNRTVTDNMLCAGDTRSGGPQANLHDACQGDSGGPLVCLNDGRMTLVGIISWGLGCGQKDVPGVYTKVTNYLDWIRDNMRP
notes: modulator used for ex vivo stimulation
B2: PDGFβ: platelet-derived growth factor stimulus applied to melanoma cell lines (protein, UniProt P01127 82-190, looked up)
Platelet-derived growth …: SLGSLTIAEPAMIAECKTRTEVFEISRRLIDRTNANFLVWPPCVEVQRCSGCCNNRNVQCRPTQVQLRPVQVRKIEIVRKKPIFKKATVTLEDHLACKCETVAAARPVT

Columns and labels:
Assay type in all cases: cell-based
RPMI-7951 [1] = test: Melanoma pErk induction following stimulation by TPA (FIG. 17)
[2] = system: human pancreatic neuroendocrine tumors (PanNETs); test: Pancreatic tumor functional signaling profile upon TPA stimulation (FIG. 18); conditions: tumor sample 10189 (metastatic PancNET)
From the text: All samples except 10195 are examples of human pancreatic neuroendocrine tumors (PanNETs). 10195 is a sample of a human pancreatic adenocarcinoma. The data reveal differences in functional profiles based on TPA stimulation using three different phosphoprotein biomarkers (p-ERK1/2, p-GSKα/β, and p-STAT3).

RPMI-7951 [3] = test: PDGFβ stimulation and MEK inhibition of PDGFβ stimulation (FIGS. 23 and 24); conditions: PDGFβ stimulation

Molecule | pErk (RPMI-7951 [1]) | pERK induction [2] | pPDGF (RPMI-7951 [3])
B1 | induction | 10 × | 
B2 |  |  | activated
